# T1: TWINKLE wt (lacks mitochondrial targeting sequence 1-42) (human, UniProt Q96RR1 43-684)
# T1 sequence: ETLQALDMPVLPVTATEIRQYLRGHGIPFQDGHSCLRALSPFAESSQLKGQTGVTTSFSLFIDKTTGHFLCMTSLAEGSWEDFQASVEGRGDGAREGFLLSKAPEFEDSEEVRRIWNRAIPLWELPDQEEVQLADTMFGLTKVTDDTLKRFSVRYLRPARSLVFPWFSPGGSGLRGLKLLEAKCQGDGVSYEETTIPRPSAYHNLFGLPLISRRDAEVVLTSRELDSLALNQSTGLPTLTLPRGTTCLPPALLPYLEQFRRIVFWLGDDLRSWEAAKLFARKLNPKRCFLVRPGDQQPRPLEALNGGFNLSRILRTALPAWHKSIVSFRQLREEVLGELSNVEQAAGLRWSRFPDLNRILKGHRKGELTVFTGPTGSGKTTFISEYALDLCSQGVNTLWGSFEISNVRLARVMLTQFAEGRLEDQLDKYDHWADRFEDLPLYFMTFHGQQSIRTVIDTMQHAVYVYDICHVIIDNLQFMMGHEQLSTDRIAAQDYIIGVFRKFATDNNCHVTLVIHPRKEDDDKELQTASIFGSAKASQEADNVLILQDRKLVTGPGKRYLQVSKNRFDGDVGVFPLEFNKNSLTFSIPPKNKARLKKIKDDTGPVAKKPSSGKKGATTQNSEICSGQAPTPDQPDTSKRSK
# T2: TWINKLE Δ372-684 (human, UniProt Q96RR1 43-371, del372-684)
# T2 sequence: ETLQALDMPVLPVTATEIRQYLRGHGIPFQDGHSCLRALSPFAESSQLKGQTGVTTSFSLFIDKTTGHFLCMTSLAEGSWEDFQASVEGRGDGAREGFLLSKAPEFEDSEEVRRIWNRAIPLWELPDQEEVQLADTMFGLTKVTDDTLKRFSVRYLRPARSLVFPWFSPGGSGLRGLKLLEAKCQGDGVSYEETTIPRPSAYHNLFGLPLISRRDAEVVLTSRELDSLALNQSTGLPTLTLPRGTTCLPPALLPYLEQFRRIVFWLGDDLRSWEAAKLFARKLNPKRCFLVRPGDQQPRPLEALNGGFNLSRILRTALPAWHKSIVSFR
# T3: TWINKY (human, UniProt Q96RR1-2 43-582, del579-684)
# T3 sequence: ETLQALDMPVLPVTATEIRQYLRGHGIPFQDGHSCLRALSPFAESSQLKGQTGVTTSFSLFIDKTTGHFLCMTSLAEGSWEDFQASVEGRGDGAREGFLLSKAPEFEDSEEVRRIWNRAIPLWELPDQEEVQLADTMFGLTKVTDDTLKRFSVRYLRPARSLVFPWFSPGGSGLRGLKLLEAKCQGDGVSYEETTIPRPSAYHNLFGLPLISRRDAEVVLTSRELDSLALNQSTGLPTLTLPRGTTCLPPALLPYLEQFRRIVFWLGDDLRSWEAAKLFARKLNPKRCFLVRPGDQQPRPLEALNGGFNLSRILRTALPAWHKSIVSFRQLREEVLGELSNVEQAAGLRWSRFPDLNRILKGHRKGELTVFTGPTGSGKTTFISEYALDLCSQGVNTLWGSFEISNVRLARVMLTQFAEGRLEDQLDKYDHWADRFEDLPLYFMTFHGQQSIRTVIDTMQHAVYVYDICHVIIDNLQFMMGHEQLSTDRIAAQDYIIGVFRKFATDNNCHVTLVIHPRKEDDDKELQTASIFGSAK
# T4: TWINKLE Δ1-121 (human, UniProt Q96RR1 122-684, del1-121)
# T4 sequence: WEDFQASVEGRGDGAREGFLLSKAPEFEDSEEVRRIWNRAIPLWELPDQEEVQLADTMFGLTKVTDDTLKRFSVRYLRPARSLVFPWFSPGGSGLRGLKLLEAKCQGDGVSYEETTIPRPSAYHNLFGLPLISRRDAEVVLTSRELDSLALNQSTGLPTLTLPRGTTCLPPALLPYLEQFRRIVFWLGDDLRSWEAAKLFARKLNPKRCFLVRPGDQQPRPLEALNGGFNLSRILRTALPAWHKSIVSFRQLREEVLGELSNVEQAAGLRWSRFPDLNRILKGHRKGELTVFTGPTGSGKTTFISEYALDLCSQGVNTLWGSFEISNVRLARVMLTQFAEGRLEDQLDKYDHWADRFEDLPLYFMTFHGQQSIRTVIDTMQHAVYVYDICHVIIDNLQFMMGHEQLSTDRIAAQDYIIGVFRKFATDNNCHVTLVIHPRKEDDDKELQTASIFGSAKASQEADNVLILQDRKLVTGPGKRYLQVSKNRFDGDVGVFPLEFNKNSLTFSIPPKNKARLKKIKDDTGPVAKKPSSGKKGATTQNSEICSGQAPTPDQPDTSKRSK
# B1: ds45 (dsDNA)
# DNA 1: TGGCACGACAGGTTTCCCGACTGGAAAGCGGGCAGTCAGCTCTAG
# DNA 2: CTAGAGCTGACTGCCCGCTTTCCAGTCGGGAAACCTGTCGTGCCA
# B2: ds30 (dsDNA)
# DNA 1: TGGCACGACAGGTTTCCCGACTGGAAAGCG
# DNA 2: CGCTTTCCAGTCGGGAAACCTGTCGTGCCA
# B3: ds15 (dsDNA)
# DNA 1: CTCTAGACTCGACCG
# DNA 2: CGGTCGAGTCTAGAG
# Assays:
# Assay in all cases: EMSA
# [1] = target: T1, TWINKLE wt (lacks mitochondrial …)
# TWINKLE Δ372-684 = target: T2, TWINKLE Δ372-684
# TWINKY = target: T3, TWINKY
# [2] = target: T1, TWINKLE wt (lacks mitochondrial …); remark: listed apart in the source
# TWINKLE Δ1-121 = target: T4, TWINKLE Δ1-121
Binder,binding result [1],binding result (TWINKLE Δ372-684),binding result (TWINKY),Kd [2],binding result (TWINKLE Δ1-121)
TTTTTTTTTTTTTTTTTTTTTTTTTTTTTTTTTTTTTTTTTTTTT (ssDNA) [ss45 poly-dT],binds,,,,
TTTTTTTTTTTTTTTTTTTTTTTTTTTTTT (ssDNA) [ss30 poly-dT],,no binding,no binding,~5 nM,
B1,binds,,,,
B2,,no binding,no binding,~5 nM,binds
B3,binds,,,,
TTTTTTTTTTTTTTT (ssDNA) [ss15 poly-dT],no binding,,,,
